Results reported in publication PMC2927781, “Allosteric Remodelling of the Histone H3 Binding Pocket in the Pygo2 PHD Finger Triggered by Its Binding to the B9L/BCL9 Co-Factor” (Journal of Molecular Biology, 2010).

Biological target: T1, 15-mer H3K4me2 histone tail peptide (histone H3 tail dimethylated at lysine 4) (dimethyl-lysine at K4)
T1 construct: histone H3 N-terminal tail, 15-mer peptide, K4 dimethylated; numbers count on: the mature protein (A1 is the N-terminal residue); Surmise: residues 1-15 of the mature histone H3 (A1 to A15); also called dimethylated histone H3 tail peptide
Experiment: ITC; H3K4me2 peptide injected (19 x 2 ul) into the protein; 25 °C; 25 mM Tris pH 8.0, 100 mM NaCl; iTC 200; one-site model
Details: both partners purified

Kd | Binder
10.3 µM | PHD_(Pygo1)–HD1_(BCL9) complex with Pygo1 W390F (complex) VYPCGICTNEVNDDQDAILCEASCQKWFHRICTGMTETAYGLLTAEASAVFGCDTCMADKDVYVFSTEMANKAAEAVLKGQVETIVSFHI
13.5 µM | PHD_(Pygo1)–HD1_(BCL9) complex with Pygo1 I357A (complex) VYPCGICTNEVNDDQDAALCEASCQKWFHRICTGMTETAYGLLTAEASAVWGCDTCMADKDVYVFSTEMANKAAEAVLKGQVETIVSFHI
